This experiment deals with T1, SBD641 (human Hsp70 residues 384-641) (human, UniProt P0DMV8 384-641).
T1 construct: Thrombin cleavage of the His tag is stated as >99% for all variants; also called full-length SBD; not shown: His6, N-terminal, cleaved
The experiment can be described thus: native MS; nESI-MS of SBD641 in the presence of NR peptide at a 1:1 molar ratio; 150 mM ammonium acetate, pH 7.4. Conditions: both partners purified.

T1 sequence (P0DMV8 384-641): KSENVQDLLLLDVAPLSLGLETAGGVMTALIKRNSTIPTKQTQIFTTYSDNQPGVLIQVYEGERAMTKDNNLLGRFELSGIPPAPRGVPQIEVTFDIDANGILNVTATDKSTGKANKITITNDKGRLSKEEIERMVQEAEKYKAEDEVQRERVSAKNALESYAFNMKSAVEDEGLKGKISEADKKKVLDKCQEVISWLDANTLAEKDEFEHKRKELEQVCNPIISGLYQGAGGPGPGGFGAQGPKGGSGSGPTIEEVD

B1: NR peptide (NRLLLTG), non-dansylated (peptide)
peptide: NRLLLTG
notes: model Hsp70 substrate peptide; the peptide of that experiment may have carried the dansyl group (surmise); also called ND-NR; source: synthetic peptide (Genemed Synthesis Inc.)
For B1, the binding result is given as “binds”.

For the origin of these results see paper PMC3696110, “Hsp70 Oligomerization Is Mediated by an Interaction between the Interdomain Linker and the Substrate-Binding Domain” (PLoS ONE, 2013).
